Laboratory results taken from article PMC8666670, “Malonyl-acyl carrier protein decarboxylase activity promotes fatty acid and cell envelope biosynthesis in Proteobacteria” (The Journal of Biological Chemistry, 2021).

B1: MadA(M17A), malonyl-ACP decarboxylase (yiiD gene product) of E. coli (enzyme, UniProt P0ADQ2 1-329, looked up)
chain: MSQLPGLSRETRESIAAYHLRVPQTEEELERYYQFRWEMLRKPLHQPKGSERDAWDAMAHHQMVVDEQGNLVAVGRLYINADNEASIRFMAVHPDVQDKGLGTLMAMTLESVARQEGVKRVTCSAREDAVEFFAKLGFVNQGEITTPTTTPIRHFLMIKPVATLDDILHRGDWCAQLQQAWYEHIPLSEKMGVRIQQYTGQKFITTMPETGNQNPHHTLFAGSLFSLATLTGWGLIWLMLRERHLGGTIILADAHIRYSKPISGKPHAVADLGALSGDLDRLARGRKARVQMQVEIFGDETPGAVFEGTYIVLPAKPFGPYEEGGNEEE
notes: YiiD (MadA) of E. coli, amplified from Top10 genomic DNA, plasmid pPJ604 with M17A to remove a second start site; Cleavage of the His6 tag is reported only for ACP and MadA^C; MadA^C is said to end at residue 329, so the whole protein probably spans 1-329; also called MadA(M17A) mutant
B2: MadA^C, carboxy-terminal hot dog domain of E. coli MadA (domain or fragment, UniProt P0ADQ2 171-329, looked up)
chain: GDWCAQLQQAWYEHIPLSEKMGVRIQQYTGQKFITTMPETGNQNPHHTLFAGSLFSLATLTGWGLIWLMLRERHLGGTIILADAHIRYSKPISGKPHAVADLGALSGDLDRLARGRKARVQMQVEIFGDETPGAVFEGTYIVLPAKPFGPYEEGGNEEE
notes: MadA (YiiD) of E. coli, amino acids 171 to 329, amplified from Top10 genomic DNA
B3: acetyl-acyl carrier protein (acetyl-ACP) (natural protein, UniProt P0A6A8 1-78, looked up)
chain: MSTIEERVKKIIGEQLGVKQEEVTNNASFVEDLGADSLDTVELVMALEEEFDTEIPDEEAEKITTVQAAIDYINGHQA
modifications: prosthetic group with attached acetyl chain (acetyl thioester), made from apo-ACP and acetyl-CoA with [ACP]synthase
B4: acyl carrier protein (ACP) (natural protein, UniProt P0A6A8 1-78, looked up)
chain: B3 chain
notes: acyl carrier protein; The ACP disulfide dimers seen in the sedimentation analysis imply that at least part of the preparation carries the phosphopantetheine thiol (holo-ACP)

How the values were obtained:
[1] = biological target: the molecule itself; assay: AUC; sedimentation analysis (methods: sedimentation velocity, 50,000 rpm, interference optics), 0.02 M Tris pH 7.5, 0.5 M NaCl, 20 °C, no reducing agents
[2] = biological target: the molecule itself; assay: SEC; gel filtration chromatography of the purified recombinant protein
[3] = biological target: GlmU, glucosamine-1-phosphate N-acetyl transferase/N-acetyl-glucosamine-1-phosphate uridylyltransferase of E. … (E. coli, UniProt P0ACC7 1-456); assay: cell-based or functional assay
Chain of GlmU, glucosamine-1-phosphate N-acetyl transferase/N-acetyl-glucosamine-1-phosphate uridylyltransferase of E. … (P0ACC7 whole entry): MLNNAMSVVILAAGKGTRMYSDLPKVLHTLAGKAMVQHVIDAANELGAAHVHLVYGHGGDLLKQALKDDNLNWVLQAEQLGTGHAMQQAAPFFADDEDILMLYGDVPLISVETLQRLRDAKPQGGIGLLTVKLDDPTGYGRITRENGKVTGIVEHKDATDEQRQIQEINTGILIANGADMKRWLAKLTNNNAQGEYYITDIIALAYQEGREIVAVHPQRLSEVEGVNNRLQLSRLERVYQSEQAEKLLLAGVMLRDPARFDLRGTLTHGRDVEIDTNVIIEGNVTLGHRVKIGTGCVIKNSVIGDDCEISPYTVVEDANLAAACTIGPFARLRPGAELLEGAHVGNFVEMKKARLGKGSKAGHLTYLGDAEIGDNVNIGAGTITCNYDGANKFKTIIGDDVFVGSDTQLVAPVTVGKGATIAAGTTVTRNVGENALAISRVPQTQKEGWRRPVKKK

[4] = biological target: B1; assay: AUC; sedimentation analysis (methods: sedimentation velocity, 50,000 rpm, interference optics), 0.02 M Tris pH 7.5, 0.5 M NaCl, 20 °C, no reducing agents; conditions: both partners purified

Question: B1 was tested. Which “stoichiometry N” value [1] did it give?
Answer: 2

Question: How did the “stoichiometry N” value [2] turn out when B2 was run?
Answer: 2

Question: How did the “apparent KM of the GlmU acetyltransferase half reaction for [^14C]acetyl-ACP (radiochemical TLC assay, 0–32 μM acetyl-ACP)” value [3] turn out when B3 was run?
Answer: 20 µM

Question: For B4, which “stoichiometry N” value [4] is on record?
Answer: 2 ACP per MadA dimer
